Assay results as given in IntAct's records for PubMed 20473270.

B1: Zinc finger HIT domain-containing protein 1 (Homo sapiens), O43257 (parent)
chain: MVEKKTSVRSQDPGQRRVLDRAARQRRINRQLEALENDNFQDDPHAGLPQLGKRLPQFDDDADTGKKKKKTRGDHFKLRFRKNFQALLEEQNLSVAEGPNYLTACAGPPSRPQRPFCAVCGFPSPYTCVSCGARYCTVRCLGTHQETRCLKWTV

Variants of: B1
Settings: with arp6_human ACTR6, Q9GZN1
Chain of arp6_human ACTR6, Q9GZN1 (Q9GZN1 whole entry): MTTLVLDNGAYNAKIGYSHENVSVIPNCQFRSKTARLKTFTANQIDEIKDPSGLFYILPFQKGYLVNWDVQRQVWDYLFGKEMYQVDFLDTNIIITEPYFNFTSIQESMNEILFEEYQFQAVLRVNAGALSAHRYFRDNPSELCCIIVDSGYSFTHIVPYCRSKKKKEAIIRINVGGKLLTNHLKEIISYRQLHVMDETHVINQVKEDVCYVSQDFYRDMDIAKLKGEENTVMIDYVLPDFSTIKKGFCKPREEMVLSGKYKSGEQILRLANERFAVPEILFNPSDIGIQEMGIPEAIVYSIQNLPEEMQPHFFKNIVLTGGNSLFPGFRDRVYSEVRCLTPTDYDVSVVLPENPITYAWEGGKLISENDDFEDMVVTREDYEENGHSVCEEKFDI

| Variant | effect of a mutation on the interaction |
| --- | --- |
| MVEKKASVRSQDPGQRRVLDRAARQRRINRQLEALENDNFQDDPHAGLPQLGKRLPQFDDDADTGKKKKKTRGDHFKLRFRKNFQALLEEQNLSVAEGPNYLTACAGPPSRPQRPFCAVCGFPSPYTCVSCGARYCTVRCLGTHQETRCLKWTV [T6A] | disrupting interaction |
| MVEKKTSVRSQDPGQRRVLDRAARQRRINRQLEALENDNFQDDPHAGLPQLGKRLPQFDDDADAGKKKKKTRGDHFKLRFRKNFQALLEEQNLSVAEGPNYLTACAGPPSRPQRPFCAVCGFPSPYTCVSCGARYCTVRCLGTHQETRCLKWTV [T64A] | disrupting interaction |
| MVEKKTSVRSQDPGQRRVLDRAARQRRINRQLEALENDNFQDDPHAGLPQLGKRLPQFDDDADTGKKKKKARGDHFKLRFRKNFQALLEEQNLSVAEGPNYLTACAGPPSRPQRPFCAVCGFPSPYTCVSCGARYCTVRCLGTHQETRCLKWTV [T71A] | disrupting interaction |
| MVEKKTSVRSQDPGQRRVLDRAARQRRINRQLEALENDNFQDDPHAGLPQLGKRLPQFDDDADTGKKKKKTRGDHFKLRFRKNFQALLEEQNLSVAEGPNYLAACAGPPSRPQRPFCAVCGFPSPYTCVSCGARYCTVRCLGTHQETRCLKWTV [T103A] | disrupting interaction |
